Test results published in patent US20220119531A1 (I MAB BIOPHARMA US, published 2022).
Where a chain is given by its changes, count along the chain named. Names and notes keep the numbering of the source. Blank lines part the entries; values can stand above or below the binder they belong to.

Assays:
[1] = target: T1, human PD-L1 expressed on mammalian cells (human, UniProt Q9NZQ7 19-290); test: FACS on PD-L1 Raji cells by the text; the axis unit is printed only as 'ng', no volume
T1 construct: whole, on cells; The cell line (CHOK1 or Raji) is named under assay in each row; also called PDL1-CHOK1 cells; PD-L1 Raji cells
T1 sequence (Q9NZQ7 19-290): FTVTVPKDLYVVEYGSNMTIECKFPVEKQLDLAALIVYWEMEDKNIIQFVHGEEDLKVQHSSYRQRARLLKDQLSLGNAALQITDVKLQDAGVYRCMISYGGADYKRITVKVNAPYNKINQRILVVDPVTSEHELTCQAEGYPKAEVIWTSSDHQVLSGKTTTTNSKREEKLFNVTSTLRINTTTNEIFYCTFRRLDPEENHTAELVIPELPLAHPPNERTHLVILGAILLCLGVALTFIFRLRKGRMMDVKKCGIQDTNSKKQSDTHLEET
Experimental: Briefly, PD-L1 Raji cells were first incubated with 5-fold serially diluted humanized antibodies starting at 2 μg/ml at RT for 1 hour. After wash by FACS buffer (PBS with 2% FBS), the Alexa 488-anti-human IgG antibody was added to each well and incubated at RT for 1 hour. The MFI of Alexa 488 were evaluated by FACSAriaIII.

[2] = target: T2, PD-L1 K162 alanine-scan mutant (human, UniProt Q9NZQ7 19-290, limits assumed); test: alanine-scan library, high-throughput flow cytometry; threshold for critical clones
T2 construct: Read by flow cytometry
T2 sequence (Q9NZQ7 other isoform, or with tags, fused parts or gaps mutant limits assumed): as the sequence (Q9NZQ7 19-290) above, with K144A counted along it
From the text: (§1) An alanine-scan library of PD-L1 was constructed. Briefly, 217 mutant clones of PD-L1 were generated on Integral Molecular's protein engineering platform. […] For each PD-L1 variant, the mean binding value was plotted as a function of expression (control anti-PD-L1 mAb reactivity).

PD-L1 N183A clone = target: T3, PD-L1 N183A clone (human, UniProt Q9NZQ7 19-290, limits assumed); test: as above
T3 construct: Read by flow cytometry
T3 sequence (Q9NZQ7 19-290 N183A limits assumed): as the sequence (Q9NZQ7 19-290) above, with N165A counted along it
From the text: as §1

[3] = target: T4, PD-L1 Y134 alanine-scan mutant (human, UniProt Q9NZQ7 19-290, limits assumed); test: as above
T4 construct: Read by flow cytometry
T4 sequence (Q9NZQ7 other isoform, or with tags, fused parts or gaps mutant limits assumed): as the sequence (Q9NZQ7 19-290) above, with Y116A counted along it
From the text: as §1

EC50 (read off the curve) [1]: ~0.5 ng
B1: Hu1210-41 (antibody, V domains shown)
VH: EVQLVESGGGLVQPGGSLRLSCAASGFTFSSYDMSWVRQAPGKSLEWVATISDAGGYIYYSDSVKGRFTISRDNAKNSLYLQMNSLRDEDTAVYICAREFGKRYALDYWGQGTTVTVSS
VL: DIQMTQSPSSLSASVGDRVTITCKASQDVTPAVAWYQQKPGKAPKLLIYSTSSRYTGVPSRFSGSGSGTDFTFTISSLQPEDIATYYCQQHYTTPLTFGQGTKLEIK
notes: Humanized; also called Hu1210-41 antibody; parental antibody Hu1210-41

EC50 (read off the curve) [1]: ~0.4 ng
B2: WT (S60R mutant of Hu1210-41) (antibody, V domains shown)
VH: B1 VH with S61R
VL: B1 VL
notes: Differs from Hu1210-41 by S60R (Kabat) in the heavy chain; Detected with anti-human IgG; also called S6OR (CDRH2) mutant; parental antibody WT

% WT reactivity [2]: < 30 % of WT | % WT reactivity (PD-L1 N183A clone): < 30 % of WT | % WT reactivity [3]: < 30 % of WT
B3: Hu1210-41 Fab (Fab, V domains shown)
VH: B1 VH
VL: B1 VL
